Reference: PMC5461112, “Structure analyses reveal a regulated oligomerization mechanism of the PlexinD1/GIPC/myosin VI complex” (eLife, 2017)
Where a chain is given by its changes, count along the chain named. In names and notes the source's numbering stands. Several values for one entry are separate records, joined by “and”; a condition that tells them apart may be missing. Equal entries are not always repeated. Values belong to the molecule of their own block, whether it stands above or below them.

What was measured:
[1] = molecular target: mouse GIPC1 GH1-PDZ-GH2 (version not told; pull-down and gel filtration) (mouse) (UniProt Q9Z0G0); experiment: SEC; gel filtration chromatography of the GH1-PDZ-GH2 proteins during purification
[2] = molecular target: mouse GIPC3 GH1-PDZ-GH2 (residues 20-307) (mouse); experiment: as above
[3] = molecular target: T1, helical cargo-binding domain (HCBD) of mouse myosin VI (residues 1052-1096), GST removed; experiment: sedimentation velocity analytical ultracentrifugation (AUC); conditions: chain shown with the change, 150 μM, read off a plot
T1 chain: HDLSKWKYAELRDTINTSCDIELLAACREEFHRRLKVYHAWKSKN

[4] = molecular target: the molecule itself; experiment: crystal structure; PlexinD1cyto and GIPC1 (residues 52-333) mixed equimolar, 5 mg/ml; 0.1 M Bis-Tris pH 5.5, 2 M (NH4)2SO4; 20°C
[5] = molecular target: the molecule itself; experiment: SEC; gel filtration chromatography of the GH1-PDZ-GH2 proteins during purification
[6] = molecular target: T2, mouse PlexinD1 cytoplasmic region with the JM-segment (residues 1297-1925) (mouse, UniProt Q3UH93 1297-1925); experiment: pull-down; three proteins mixed: GST-HCBD, a GIPC and PlexinD1cyto (with JM), each 1 μM; glutathione beads; 10 mM Tris pH 8.0, 150 mM NaCl, 1 mM DTT; room temperature; Coomassie-stained SDS-PAGE; conditions: both partners purified
T2 construct: mouse PlexinD1, cytoplasmic region with the juxtamembrane segment, residues 1297-1925; also called PlexinD1_(cyto)(with JM); PlxD1; not shown: His6, N-terminal, cleaved
T2 sequence (looked up): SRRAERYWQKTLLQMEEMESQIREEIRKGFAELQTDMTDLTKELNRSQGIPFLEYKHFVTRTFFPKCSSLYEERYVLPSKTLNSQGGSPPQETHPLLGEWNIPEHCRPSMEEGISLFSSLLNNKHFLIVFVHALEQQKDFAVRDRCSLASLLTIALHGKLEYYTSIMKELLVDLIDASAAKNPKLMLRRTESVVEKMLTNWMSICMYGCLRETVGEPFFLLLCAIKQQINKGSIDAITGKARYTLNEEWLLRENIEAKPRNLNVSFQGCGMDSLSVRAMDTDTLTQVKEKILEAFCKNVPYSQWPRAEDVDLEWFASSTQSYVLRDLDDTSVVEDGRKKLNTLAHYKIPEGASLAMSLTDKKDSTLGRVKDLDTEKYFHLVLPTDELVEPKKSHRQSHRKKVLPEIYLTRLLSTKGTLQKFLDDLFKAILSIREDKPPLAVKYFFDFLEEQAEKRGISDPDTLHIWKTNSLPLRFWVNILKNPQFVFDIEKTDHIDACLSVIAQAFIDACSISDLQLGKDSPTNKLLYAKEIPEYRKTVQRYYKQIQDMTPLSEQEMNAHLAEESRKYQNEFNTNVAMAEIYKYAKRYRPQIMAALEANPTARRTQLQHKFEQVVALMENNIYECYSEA

[7] = molecular target: helical cargo-binding domain (HCBD) of mouse myosin VI (residues 1052-1096), GST removed (mouse); experiment: AUC; sedimentation velocity of GH2 and HCBD mixed 1:1 at various concentrations (mutants at 150 μM); multi-signal analysis; 10 mM Tris pH 8.0, 150 mM NaCl, 1 mM TCEP; 4°C, 50,000 rpm
[8] = molecular target: the molecule itself; experiment: crystal structure; apo-GIPC1 (residues 52-327), 5 mg/ml; 0.2 M Li2SO4, 0.1 M HEPES pH 7.5, 25% (w/v) PEG3350; 20°C
[9] = 500 mM salt in the buffer, parent: est. 4.3

Molecule: mouse GIPC1 GH1-PDZ-GH2 (version not told; pull-down and gel filtration) (from UniProt Q9Z0G0 52-333) (domain or fragment)
stoichiometry N [1]: 2

B5: mouse GIPC1 GH1-PDZ-GH2 version 1 (residues 52-333) (domain or fragment, UniProt Q9Z0G0 52-333, looked up)
chain: AALRPRLVFHTQLAHGSPTGRIEGFTNVKELYGKIAEAFRLPAAEVMFCTLNTHKVDMDKLLGGQIGLEDFIFAHVKGQRKEVEVFKSEEALGLTITDNGAGYAFIKRIKEGSVIDHIQLISVGDMIEAINGQSLLGCRHYEVARLLKELPRGRTFTLKLTEPRKAFDMISQRSAGGHPGSGPQLGTGRGTLRLRSRGPATVEDLPSAFEEKAIEKVDDLLESYMGIRDTELAATMVELGKDKRNPDELAEALDERLGDFAFPDEFVFDVWGAIGDAKVGRY
notes: mouse GIPC1, GH1-PDZ-GH2 domains, version 1, residues 52-333; the PDZ-GH2 linker and GH2 domain are invisible in the map; not shown: His6, N-terminal, cleaved
binding result [4]: binds

B7: mouse GIPC1 GH2 domain (residues 258-333), Q9Z0G0 M276E (protein)
chain: SAFEEKAIEKVDDLLESYEGIRDTELAATMVELGKDKRNPDELAEALDERLGDFAFPDEFVFDVWGAIGDAKVGRY
other: s20,ww-value of the complex ([3]; parent: est. 3.8): 3.3 S

B8: mouse GIPC1 GH2 domain (residues 258-333), Q9Z0G0 G323Q (protein)
chain: B7 chain with E19M, G66Q
other: s20,ww-value of the complex ([3]; parent: est. 3.8): 1.8 S

B9: mouse GIPC1 GH2 domain (residues 258-333) (domain or fragment)
chain: B7 chain with E19M
stoichiometry N [7]: 1 and 1.1

B10: mouse GIPC1 GH2 domain (residues 258-333), Q9Z0G0 I278Q; G323Q (protein)
chain: B7 chain with E19M, I21Q, G66Q
other: s20,ww-value of the complex ([3]; parent: est. 3.8): 1.8 S

B15: mouse GIPC1 GH2 domain (residues 258-333), Q9Z0G0 F319S (protein)
chain: B7 chain with E19M, F62S
other: s20,ww-value of the complex ([3]; parent: est. 3.8): 2.4 S

B20: mouse GIPC1 GH2 domain (residues 258-333), Q9Z0G0 I278Q (protein)
chain: B7 chain with E19M, I21Q
other: s20,ww-value of the complex ([3]; parent: est. 3.8): 2.1 S

B21: mouse GIPC1 GH1-PDZ-GH2 version 2 (residues 52-327) (domain or fragment, UniProt Q9Z0G0 52-327, looked up)
chain: AALRPRLVFHTQLAHGSPTGRIEGFTNVKELYGKIAEAFRLPAAEVMFCTLNTHKVDMDKLLGGQIGLEDFIFAHVKGQRKEVEVFKSEEALGLTITDNGAGYAFIKRIKEGSVIDHIQLISVGDMIEAINGQSLLGCRHYEVARLLKELPRGRTFTLKLTEPRKAFDMISQRSAGGHPGSGPQLGTGRGTLRLRSRGPATVEDLPSAFEEKAIEKVDDLLESYMGIRDTELAATMVELGKDKRNPDELAEALDERLGDFAFPDEFVFDVWGAIGD
notes: mouse GIPC1, GH1-PDZ-GH2 domains, version 2, residues 52-327; the dimer peak of gel filtration was collected; also called apo-GIPC1; not shown: His6, N-terminal, cleaved
binding result [8]: binds

The next lines start with results.

stoichiometry N [2]: 2
Molecule: mouse GIPC3 GH1-PDZ-GH2 (residues 20-307) (domain or fragment)

other: s20,ww-value of the complex [3, 9]: 1.4 S
B1: mouse GIPC1 linker-GH2 (residues 217-333), Q9Z0G0 Y275A; M276E; I278Q; G323Q (protein)
chain: AFDMISQRSAGGHPGSGPQLGTGRGTLRLRSRGPATVEDLPSAFEEKAIEKVDDLLESAEGQRDTELAATMVELGKDKRNPDELAEALDERLGDFAFPDEFVFDVWQAIGDAKVGRY

other: s20,ww-value of the complex [3, 9]: 1.4 S
B2: mouse GIPC1 linker-GH2 (residues 217-333), Q9Z0G0 Y275A; M276E; G323Q (protein)
chain: B1 chain with Q62I

other: s20,ww-value of the complex [3, 9]: 1.4 S
B3: mouse GIPC1 linker-GH2 (residues 217-333), Q9Z0G0 Y275A; M276E (protein)
chain: B1 chain with Q62I, Q107G

other: s20,ww-value of the complex [3, 9]: 1.4 S
B4: mouse GIPC1 linker-GH2 (residues 217-333), Q9Z0G0 Y275A; M276E; I278Q (protein)
chain: B1 chain with Q107G

binding result [6]: binds
B6: mouse GIPC2 GH1-PDZ-GH2 (residues 40-314) (domain or fragment, UniProt Q9Z2H7 40-314, looked up)
chain: RKLVFHAQLAHGSATGRVEDFSSISELYAKIAGVFEIAPSEILFCTLNTPKIDMGKLLGGQLGLEDFIFAHVKGTKKEVNVYKSEDSLGLTITDNGVGYAFIKRIKDGSTIDSVKTICVGDHIECINGENIVGWRHFEVAKKLKELKKEELFTLQLIEPKKAFEIGPRSKAGKTSTEKIGTSRGTLRLRSKGPATVEELPSEAKAKAIGKVDDLLELYMGIRDIDLATTMFEAGKDKSNPDEFAVALDETLGDFAFPDEFLFDVWGAISDMKQGR
notes: mouse GIPC2, GH1-PDZ-GH2 domains, residues 40-314; not shown: His6, N-terminal, cleaved
stoichiometry N [5]: 2

other: s20,ww-value of the complex ([3]; parent: est. 3.8): 1.6 S
B11: mouse GIPC1 GH2 domain (residues 258-333), Q9Z0G0 Y275A; G323Q (protein)
chain: B7 chain with Y18A, E19M, G66Q

other: s20,ww-value of the complex ([3]; parent: est. 3.8): 1.3 S
B12: mouse GIPC1 GH2 domain (residues 258-333), Q9Z0G0 Y275A; M276E (protein)
chain: B7 chain with Y18A

other: s20,ww-value of the complex ([3]; parent: est. 3.8): 1.5 S
B13: mouse GIPC1 GH2 domain (residues 258-333), Q9Z0G0 M276E; G323Q (protein)
chain: B7 chain with G66Q

other: s20,ww-value of the complex ([3]; parent: est. 3.8): 1.6 S
B14: mouse GIPC1 GH2 domain (residues 258-333), Q9Z0G0 M276E; F319S (protein)
chain: B7 chain with F62S

other: s20,ww-value of the complex ([3]; parent: est. 3.8): 1.3 S
B16: mouse GIPC1 GH2 domain (residues 258-333), Q9Z0G0 Y275A; M276E; I278Q (protein)
chain: B7 chain with Y18A, I21Q

other: s20,ww-value of the complex ([3]; parent: est. 3.8): 3 S
B17: mouse GIPC1 GH2 domain (residues 258-333), Q9Z0G0 Y275A (protein)
chain: B7 chain with Y18A, E19M

other: s20,ww-value of the complex ([3]; parent: est. 3.8): 1.3 S
B18: mouse GIPC1 GH2 domain (residues 258-333), Q9Z0G0 Y275A; M276E; I278Q; G323Q (protein)
chain: B7 chain with Y18A, I21Q, G66Q

other: s20,ww-value of the complex ([3]; parent: est. 3.8): 1.3 S
B19: mouse GIPC1 GH2 domain (residues 258-333), Q9Z0G0 Y275A; M276E; G323Q (protein)
chain: B7 chain with Y18A, G66Q
